Measurements published in PMC12137620, “Targeting the MDK/c‐Myc complex to overcome temozolomide resistance in glioma” (Clinical and Translational Medicine, 2025).

Tests used:
[1] = target: T1, His-tagged c-Myc (human, UniProt P01106 1-454, labelled with the NT-647-NHS dye); assay: MST; as the MST of MDK and c-Myc, after the addition of 1 µM ACT001; details: both partners purified
T1 construct: c-Myc; plasmid constructed by Tsingke Biotechnology Co., Ltd. (Beijing); also called recombinant c-Myc protein; source: bacterial BL21 cells, purified (Ni-NTA agarose)
T1 sequence (P01106 whole entry): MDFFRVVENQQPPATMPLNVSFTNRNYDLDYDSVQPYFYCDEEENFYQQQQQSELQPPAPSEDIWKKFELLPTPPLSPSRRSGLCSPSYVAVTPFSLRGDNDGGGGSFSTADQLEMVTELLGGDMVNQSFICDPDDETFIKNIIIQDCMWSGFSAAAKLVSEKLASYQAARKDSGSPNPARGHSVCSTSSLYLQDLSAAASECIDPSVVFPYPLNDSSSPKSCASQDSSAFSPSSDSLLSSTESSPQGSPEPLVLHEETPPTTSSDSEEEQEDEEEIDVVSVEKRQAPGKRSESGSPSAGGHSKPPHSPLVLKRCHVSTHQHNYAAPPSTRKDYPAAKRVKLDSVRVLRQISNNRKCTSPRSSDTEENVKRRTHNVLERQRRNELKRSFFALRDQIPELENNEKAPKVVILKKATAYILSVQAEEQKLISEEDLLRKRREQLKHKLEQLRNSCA

[2] = target: T1, His-tagged c-Myc; assay: MST; Monolith NT.115; NT-647-NHS-labelled c-Myc held constant (416 nM stock mixed 1:1), MDK in 16 serial dilutions; PBSP (1x PBS + 0.1% Pluronic F-127); standard treated capillaries; details: both partners purified

Kd [1]: 1540 nM | Kd [2]: 18.8 nM
B1: Recombinant human MDK protein (natural protein, UniProt P21741 21-143, looked up)
chain: VAKKKDKVKKGGPGSECAEWAWGPCTPSSKDCGVGFREGTCGAQTQRIRCRVPCNWKKEFGADCKYKFENWGACDGGTGTKVRQGTLKKARYNAQCQETIRVTKPCTPKTKAKAKAKKGKGKD
notes: recombinant human midkine, bought; also called midkine; source: bought: Zeye Biotechnology Corporation (ZY631H02P, Shanghai)
